Laboratory results: US20080146500A1, “Selective Vpac2 Receptor Peptide Agonists” (priority 2004, published 2008)
Ends that are not written are not given here. * marks the point of attachment. Hexanoyl = CCCCCC(=O)*

Columns and labels:
human VPAC1 = target: T1, human VPAC1 (Homo sapiens, UniProt P32241); assay: Filter binding assay, membranes from cells transiently transfected with human VPAC1, 125I-labeled VIP tracer; conditions: read-out: Human receptor binding (IC50; nM) VPAC1
T1 construct: expressed in transfected cells
T1 sequence (P32241 31-457): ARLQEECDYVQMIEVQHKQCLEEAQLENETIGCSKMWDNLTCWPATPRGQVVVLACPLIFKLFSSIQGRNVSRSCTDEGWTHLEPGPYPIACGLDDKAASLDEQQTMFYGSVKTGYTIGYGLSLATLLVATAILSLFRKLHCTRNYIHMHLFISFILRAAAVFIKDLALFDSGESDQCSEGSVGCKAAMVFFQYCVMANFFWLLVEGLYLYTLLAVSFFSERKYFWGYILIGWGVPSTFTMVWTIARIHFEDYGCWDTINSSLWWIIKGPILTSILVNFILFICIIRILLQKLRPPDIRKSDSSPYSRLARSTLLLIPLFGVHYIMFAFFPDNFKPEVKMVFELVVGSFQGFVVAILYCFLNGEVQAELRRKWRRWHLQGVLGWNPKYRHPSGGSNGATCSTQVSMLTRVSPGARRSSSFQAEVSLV
Procedure: (§1) For this assay, the solutions and equipment include:
(§2) Presoak solution: 0.5% Polyethyleneamine in Aqua dest.
(§3) Buffer for flushing filter plates: 25 mM HEPES pH 7.4
(§4) Blocking buffer: 25 mM HEPES pH 7.4; 0.2% protease free BSA
(§5) Assay buffer: 25 mM HEPES pH 7.4; 0.5% protease free BSA
(§6) Dilution and assay plate: PS-Microplate, U form
(§7) Filtration Plate Multiscreen FB Opaque Plate; […] Type B Glasfiber filter
(§8) In order to prepare the filter plates, the presoak solution is aspirated by vacuum filtration. The plates are flushed twice with 200 μL flush buffer. 200 μL blocking buffer is added to the filter plate. The filter plate is then incubated with 200 μL presoak solution for 1 hour at room temperature.
(§9) The assay plate is filled with […] (2.5 μg) suspended in assay buffer, 25 μL compound (agonist) in assay buffer, and 25 μL tracer (about 40000 cpm) in assay buffer. The filled plate is incubated for 1 hour with shaking.
(§10) The transfer from assay plate to filter plate is conducted. The blocking buffer is aspirated by vacuum filtration and washed two times with flush buffer. 90 μL is transferred from the assay plate to the filter plate. The 90 μL transferred from assay plate is aspirated and washed three times with 200 μL flush buffer. The plastic support is removed. It is dried for 1 hour at 60° C. 30 μL Microscint is added. The count is performed.
(§11) Values reported are single results or the mean of two or more independent runs.

human PAC1 = target: T2, human PAC1 (Homo sapiens, UniProt P41586); assay: Filter binding assay, membranes from cells transiently transfected with human PAC1, 125I-labeled PACAP-27 tracer; conditions: read-out: Human receptor binding (IC50; nM) PAC1
T2 construct: expressed in transfected cells
T2 sequence (P41586 21-468): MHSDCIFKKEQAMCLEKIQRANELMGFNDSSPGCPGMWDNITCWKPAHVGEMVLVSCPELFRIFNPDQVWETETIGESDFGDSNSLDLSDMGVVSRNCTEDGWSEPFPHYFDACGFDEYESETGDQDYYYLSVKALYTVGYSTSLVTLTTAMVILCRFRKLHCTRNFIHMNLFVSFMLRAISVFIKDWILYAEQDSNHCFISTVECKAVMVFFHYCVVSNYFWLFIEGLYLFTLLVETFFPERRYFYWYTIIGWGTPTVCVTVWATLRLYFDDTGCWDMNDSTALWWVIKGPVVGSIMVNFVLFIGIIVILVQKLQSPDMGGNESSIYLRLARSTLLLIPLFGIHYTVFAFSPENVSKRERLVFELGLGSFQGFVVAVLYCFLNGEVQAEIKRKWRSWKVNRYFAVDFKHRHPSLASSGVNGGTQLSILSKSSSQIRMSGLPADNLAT
Procedure: as §1, §2, §3, §4, §5, §6, §7, §8, §9, §10, §11

Normal Wistar rats = assay: Intravenous glucose tolerance test (IVGTT), serum glucose and insulin; assay type: in vivo, rat; conditions: Dose = 10 μg/kg iv, time between glucose & compound 0 h
Procedure: Intravenous glucose tolerance test (IVGTT): Normal Wistar rats are fasted overnight and are anesthetized prior to the experiment. A blood sampling catheter is inserted into the rats. The compound is given in the jugular vein. Blood samples are taken from the carotid artery. A blood sample is drawn immediately prior to the injection of glucose along with the compound. After the initial blood sample, glucose mixed with compound is injected intravenously (i.v.). Compound may also be injected intravenously or subcutaneously prior to the glucose challenge. A glucose challenge of 0.5 g/kg body weight is given, injecting a total of 1.5 mL vehicle with glucose and agonist per kg body weight. The peptide concentrations are varied to produce the desired dose in μg/kg. Blood samples are drawn at 2, 4, 6 and 10 minutes after giving glucose. The control group of animals receives the same vehicle along with glucose, but with no compound added. In some instances, a 30 minute post-glucose blood sample is drawn. Aprotinin is added to the blood sample (250-500 kIU/ml blood). The serum is then analyzed for glucose and insulin using standard methodologies.
The assay uses a formulated and calibrated peptide stock in PBS. Normally, this stock is a prediluted 100 μM stock. However, a more concentrated stock with approximately 1 mg agonist per 1 mL is used. The specific concentration is always known. Variability in the maximal response is mostly due to variability in the vehicle dose.

[1] = target: T3, human VPAC2 receptor (human), P41587; assay: cell-based or functional assay
T3 chain: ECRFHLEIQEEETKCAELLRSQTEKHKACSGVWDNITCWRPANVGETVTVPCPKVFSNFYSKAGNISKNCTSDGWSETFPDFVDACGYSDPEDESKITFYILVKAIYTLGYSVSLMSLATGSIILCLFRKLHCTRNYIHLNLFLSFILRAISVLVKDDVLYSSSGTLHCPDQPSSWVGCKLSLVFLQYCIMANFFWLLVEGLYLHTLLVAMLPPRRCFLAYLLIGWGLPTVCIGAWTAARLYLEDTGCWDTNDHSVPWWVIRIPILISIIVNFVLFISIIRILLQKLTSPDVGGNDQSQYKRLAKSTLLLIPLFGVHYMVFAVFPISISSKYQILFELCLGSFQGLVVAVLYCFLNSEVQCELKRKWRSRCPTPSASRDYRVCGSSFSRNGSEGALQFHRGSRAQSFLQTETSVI

[2] = target: T3, human VPAC2 receptor (human), P41587; assay: filter binding, VPAC2 membranes, 125I-VIP tracer
[3] = target: T4, rat VPAC1 receptor (rat), P30083; assay: cell-based or functional assay
T4 chain: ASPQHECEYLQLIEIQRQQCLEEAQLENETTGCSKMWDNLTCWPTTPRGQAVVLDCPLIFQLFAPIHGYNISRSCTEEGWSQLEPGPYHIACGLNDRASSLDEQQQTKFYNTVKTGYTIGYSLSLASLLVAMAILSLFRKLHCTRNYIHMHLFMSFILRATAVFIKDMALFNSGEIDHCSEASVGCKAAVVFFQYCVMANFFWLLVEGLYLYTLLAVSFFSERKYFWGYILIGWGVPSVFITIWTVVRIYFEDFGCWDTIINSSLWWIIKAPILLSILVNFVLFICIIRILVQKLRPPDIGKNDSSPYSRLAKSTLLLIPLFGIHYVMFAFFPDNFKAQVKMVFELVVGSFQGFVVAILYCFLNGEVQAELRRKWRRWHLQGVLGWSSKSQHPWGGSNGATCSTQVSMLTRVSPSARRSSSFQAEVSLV

[4] = target: T5, rat VPAC2 receptor (rat), P35000; assay: cell-based or functional assay
T5 chain: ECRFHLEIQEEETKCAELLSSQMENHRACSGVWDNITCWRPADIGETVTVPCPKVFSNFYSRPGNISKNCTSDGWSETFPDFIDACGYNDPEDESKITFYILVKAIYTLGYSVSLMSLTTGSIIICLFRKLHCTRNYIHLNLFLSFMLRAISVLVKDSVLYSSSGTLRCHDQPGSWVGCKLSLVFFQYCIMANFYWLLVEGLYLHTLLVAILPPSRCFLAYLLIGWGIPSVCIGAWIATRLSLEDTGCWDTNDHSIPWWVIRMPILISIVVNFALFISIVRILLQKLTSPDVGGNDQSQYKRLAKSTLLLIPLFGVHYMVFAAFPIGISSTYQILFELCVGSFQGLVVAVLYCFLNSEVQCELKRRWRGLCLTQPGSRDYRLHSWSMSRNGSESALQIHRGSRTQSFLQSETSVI

[5] = target: T6, human VPAC1 receptor (human), P32241; assay: filter binding, VPAC1 membranes, 125I-VIP tracer
T6 chain: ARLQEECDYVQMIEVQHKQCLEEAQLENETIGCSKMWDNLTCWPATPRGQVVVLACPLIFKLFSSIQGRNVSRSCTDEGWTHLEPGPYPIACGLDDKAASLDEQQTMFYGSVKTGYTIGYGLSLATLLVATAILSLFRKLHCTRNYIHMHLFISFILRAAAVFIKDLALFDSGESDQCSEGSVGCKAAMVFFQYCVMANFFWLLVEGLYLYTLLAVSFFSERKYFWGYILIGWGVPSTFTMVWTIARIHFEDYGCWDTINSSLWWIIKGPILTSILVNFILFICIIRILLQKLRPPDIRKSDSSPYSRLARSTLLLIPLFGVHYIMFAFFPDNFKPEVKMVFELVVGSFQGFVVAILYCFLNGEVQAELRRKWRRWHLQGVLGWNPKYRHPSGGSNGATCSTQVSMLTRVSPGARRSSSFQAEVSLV

human VPAC2 receptor [6] = target: T7, human VPAC2 receptor (human, UniProt P41587 24-438); assay: cell-based or functional assay
T7 sequence (looked up): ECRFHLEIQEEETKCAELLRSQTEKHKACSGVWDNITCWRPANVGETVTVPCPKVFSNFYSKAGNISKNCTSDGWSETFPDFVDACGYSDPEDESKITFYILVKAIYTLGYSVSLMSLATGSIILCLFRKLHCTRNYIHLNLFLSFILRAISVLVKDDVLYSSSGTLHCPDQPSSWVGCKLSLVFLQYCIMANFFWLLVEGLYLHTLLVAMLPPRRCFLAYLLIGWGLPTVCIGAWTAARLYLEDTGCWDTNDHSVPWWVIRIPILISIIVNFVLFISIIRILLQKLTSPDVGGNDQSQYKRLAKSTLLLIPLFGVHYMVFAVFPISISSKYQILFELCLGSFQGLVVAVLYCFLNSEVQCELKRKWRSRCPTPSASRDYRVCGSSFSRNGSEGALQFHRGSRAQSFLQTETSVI

human VPAC2 receptor [7] = target: T7, human VPAC2 receptor; assay: filter binding, VPAC2 membranes, 125I-VIP tracer
Procedure: The assay plate is filled with 25 mL assay buffer, 25 mL membranes (2.5 μg) suspended in assay buffer, 25 μL compound (agonist) in assay buffer, and 25 μL tracer (about 40000 cpm) in assay buffer. The filled plate is incubated for 1 hour with shaking.

“C6-HSDAVFTDNYTRLLAKLALQKYLQSIKNKRYGGPSSGAPPPC(PEG40K) (Hexanoyl-HSDAVFTDNYTRLLAKLALQKYLQSIKNKRYGGPSSGAPPPC(PEG 40 kDa)) [Agonist P190, PEGylated peptide obtained from P164 and methoxy-PEG2-MAL-40K]” was tested, and the IC50 (human VPAC1) was over 3000 nM, the IC50 (human PAC1) was over 25000 nM and the “% increase AUC (insulin, 0-10 min after glucose)” value (Normal Wistar rats) was “+73%”.

With HSDAVFTDNYTRLRRQVAAKRYLQSIRNGGPSSGAPPPS (modifications not checked) [P219] the cAMP generation (EC50), Alpha screen [1] was 25.5 nM and the IC50 [2] was 67.9 nM.

HSDAVFTDNYTRLRRQVAARKYLQSIRNGGPSSGAPPPS (modifications not checked) [P247] gave a cAMP generation (EC50), Alpha screen [1] of 133 nM and an IC50 [2] of 353 nM.

HSDAVFTDNYTRLRKQVAARRYLQSIRNGGPSSGAPPPS (modifications not checked) [P245] gave a cAMP generation (EC50), Alpha screen [1] of 450 nM and an IC50 [2] of 921 nM.

Molecule HSDAVFTDNYTRLRKQVAAKKYLQSIKNKRYGGPSSGAPPPC (modifications not checked) [P137] has a cAMP generation (EC50), Alpha screen [1] of 8.31 nM, a cAMP generation (EC50), DiscoveRx, CHO-PO cells [3] of 29.7 nM and a cAMP generation (EC50), DiscoveRx, CHO-PO cells [4] of 8 nM. For the same molecule, the IC50 [5] was 853 nM and the IC50 [2] was 0.64 nM.

B1: P190 (peptide)
peptide: Hexanoyl-HSDAVFTDNYTRLLAKLALQKYLQSIKNKRYGGPSSGAPPPC(PEG 40 kDa)
notes: T0013 drops Thr 11 (print error); also called PEGylated P164
B1 was tested, and the “cAMP generation (EC50), Alpha screen” value (human VPAC2 receptor [6]) was 2.14 nM and the IC50 (human VPAC2 receptor [7]) was 4.44 nM.
